From publication PMC4407904, “Increased Expression of the Large Conductance, Calcium-Activated K^+ (BK) Channel in Adult-Onset Neuronal Ceroid Lipofuscinosis” (PLoS ONE, 2015)

Target: the molecule itself
Test: SDS-PAGE and immunoblot of detergent-resistant oligomers; soluble CAD cell lysates (1% Triton X-100, 0.1% SDS lysis buffer) 24-72 h after transient transfection; blots with anti-myc, anti-flag or anti-CSPα

B1: myc-tagged wild type cysteine string protein (CSPα) (natural protein, UniProt P60905 1-198, looked up)
chain: MADQRQRSLSTSGESLYHVLGLDKNATSDDIKKSYRKLALKYHPDKNPDNPEAADKFKEINNAHAILTDATKRNIYDKYGSLGLYVAEQFGEENVNTYFVLSSWWAKALFVVCGLLTCCYCCCCLCCCFNCCCGKCKPKAPEGEETEFYVSPEDLEAQLQSDEREATDTPIVIQPASATETTQLTADSHPSYHTDGFN
notes: Cysteine string protein alpha (CSPα, DnaJC5), wild type; Seen on blots as an unpalmitoylated 26 kDa species, a palmitoylated 35 kDa monomer and a 70 kDa dimer; rat cDNA is surmised; also called WTCSPα; myc-CSPα; source: CAD cells, transiently transfected, in lysate
In the case of B1, the “stoichiometry N” value is reported as 2.
